Experimental data: patent publication US20180244796A1 (CARSGEN THERAPEUTICS, published 2018)
Each block holds one binder with its values, some of them ahead of it. Ends that are not written are not given here. muFc = mouse Fc fragment of vector pCMV-V5-muFc

What was measured:
[1] = molecular target: T1, scFv-P3F2-Fc (human, UniProt P01857-1 99-330 = IgG part, limits assumed); assay: ELISA on peptide-muFc fusion proteins
T1 construct: domain: Fc fragment; scFv cloned NheI/BamHI into pCMV-V5-Fc, expressed in HEK-293F, protein A purified; also called P3F2 single chain antibody; P3F2 single chain antibod

[2] = molecular target: T2, scFv-P1A6E-Fc (human, UniProt P01857-1 99-330 = IgG part, limits assumed); assay: ELISA on peptide-muFc fusion proteins
T2 construct: domain: Fc fragment; scFv cloned NheI/BamHI into pCMV-V5-Fc, expressed in HEK-293F, protein A purified; also called P1A6E single chain antibody; antibody-Fc fusion protein scFv-P1A6E-Fc

[3] = molecular target: T2, scFv-P1A6E-Fc; assay: ELISA, scFv-Fc against MSTL-R1A-mFc; x axis con.(nM), the sheet does not say whose concentration [left panel]
[4] = molecular target: T1, scFv-P3F2-Fc; assay: ELISA, scFv-Fc against MSTL-R1A-mFc; x axis con.(nM), the sheet does not say whose concentration [right panel]
[5] = molecular target: T1, scFv-P3F2-Fc; assay: ELISA, scFv-Fc against MSLT-R1-mFc; x axis con.(nM), the sheet does not say whose concentration [right panel]
[6] = molecular target: T2, scFv-P1A6E-Fc; assay: ELISA, scFv-Fc against MSLT-R1-mFc; x axis con.(nM), the sheet does not say whose concentration [left panel]
[7] = molecular target: T1, scFv-P3F2-Fc; assay: ELISA, scFv-Fc against MSTL-R1B-mFc; x axis con.(nM) [right panel]
[8] = molecular target: T2, scFv-P1A6E-Fc; assay: ELISA, scFv-Fc against MSTL-R1B-mFc; x axis con.(nM) [left panel]
[9] = molecular target: T2, scFv-P1A6E-Fc; assay: ELISA, scFv-Fc against MSTL-R1AB-mFc; x axis con.(nM), the sheet does not say whose concentration [left panel]
[10] = molecular target: T1, scFv-P3F2-Fc; assay: ELISA, scFv-Fc against MSTL-R1AB-mFc; x axis con.(nM), the sheet does not say whose concentration [right panel]
[11] = molecular target: T2, scFv-P1A6E-Fc; assay: ELISA, scFv-Fc against MSLT-R3-mFc; x axis con.(nM) [left panel]
[12] = molecular target: T1, scFv-P3F2-Fc; assay: ELISA, scFv-Fc against MSLT-R3-mFc; x axis con.(nM) [right panel]
[13] = molecular target: T1, scFv-P3F2-Fc; assay: ELISA, scFv-Fc against MSLT-R2-mFc; x axis con.(nM) [right panel]
[14] = molecular target: T2, scFv-P1A6E-Fc; assay: ELISA, scFv-Fc against MSLT-R2-mFc; x axis con.(nM) [left panel]
[15] = molecular target: T1, scFv-P3F2-Fc; assay: flow cytometry on PANC-1-MSLN cells, 20 ug/ml antibody, goat anti-human-FITC
Method: (§1) Each of antibodies scFv-P1A6E-Fc and scFv-P3F2-Fc was analyzed for binding ability to mesothelin at cell surface by Fluorescence Activated Cell Sorter (FACS) (Guava 8HT, supplied by Millipore).
(§2) 4) antibodies P1A6E and P3F2 to be tested were added into the two experimental groups, respectively, adding antibodies ss and C10 (purchased from Shanghai Rui Jin Biotechnology Co., Ltd.) were added into two positive control groups added as positive controls, and another control group is PBS blank control without antibody. The final concentration of each antibody was 20 μg/ml. 100 μl was added to each tube, and incubated in an ice bath for 45 minutes.

[16] = molecular target: T2, scFv-P1A6E-Fc; assay: as above
Method: as §1, §2

T2 sequence (P01857 other isoform, or with tags, fused parts or gaps limits assumed): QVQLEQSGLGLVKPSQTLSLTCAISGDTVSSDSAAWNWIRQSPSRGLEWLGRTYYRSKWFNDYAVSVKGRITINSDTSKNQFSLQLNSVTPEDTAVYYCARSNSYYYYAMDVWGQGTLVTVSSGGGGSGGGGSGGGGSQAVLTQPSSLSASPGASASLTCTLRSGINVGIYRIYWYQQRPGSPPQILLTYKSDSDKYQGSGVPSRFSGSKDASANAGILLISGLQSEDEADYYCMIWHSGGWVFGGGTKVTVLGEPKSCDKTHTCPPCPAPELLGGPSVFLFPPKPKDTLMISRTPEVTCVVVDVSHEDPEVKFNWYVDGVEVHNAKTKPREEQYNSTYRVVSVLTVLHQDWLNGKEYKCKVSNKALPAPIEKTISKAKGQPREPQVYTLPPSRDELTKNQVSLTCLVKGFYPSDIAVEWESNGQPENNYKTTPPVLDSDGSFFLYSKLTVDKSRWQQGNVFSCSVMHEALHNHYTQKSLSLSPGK
T1 sequence (P01857 other isoform, or with tags, fused parts or gaps limits assumed): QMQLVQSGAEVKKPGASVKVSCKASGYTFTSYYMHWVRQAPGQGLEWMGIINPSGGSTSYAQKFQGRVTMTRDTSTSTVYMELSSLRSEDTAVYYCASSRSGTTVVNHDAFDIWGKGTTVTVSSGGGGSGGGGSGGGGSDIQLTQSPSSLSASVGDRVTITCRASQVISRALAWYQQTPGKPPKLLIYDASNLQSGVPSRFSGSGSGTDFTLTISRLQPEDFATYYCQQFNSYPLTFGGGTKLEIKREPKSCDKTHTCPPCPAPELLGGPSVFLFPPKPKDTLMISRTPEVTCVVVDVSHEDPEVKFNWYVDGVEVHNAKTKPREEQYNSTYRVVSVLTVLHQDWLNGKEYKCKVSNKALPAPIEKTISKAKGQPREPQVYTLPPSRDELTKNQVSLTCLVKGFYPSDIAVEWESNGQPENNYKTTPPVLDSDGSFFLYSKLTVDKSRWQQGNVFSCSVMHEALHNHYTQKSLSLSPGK

- binding result [1]: no binding
- binding result [2]: no binding
Binder: YKKWELEACVDAALLATQMDRVNAIPFTYE (Fc fusion, not shown: mouse Fc fragment (muFc)) [mesothelin peptide R1J10-muFc fusion protein]

- binding result [3]: binds
- binding result [4]: binds
B1: human mesothelin region R1A (296E-337D)-muFc fusion protein (Fc fusion)
chain: EVEKTACPSGKKAREIDESLIFYKKWELEACVDAALLATQMD
notes: not shown: mouse Fc fragment of vector pCMV-V5-muFc

- binding result [5]: binds
- binding result [6]: binds
B2: human mesothelin region R1 (E296-T390)-muFc fusion protein (Fc fusion)
chain: EVEKTACPSGKKAREIDESLIFYKKWELEACVDAALLATQMDRVNAIPFTYEQLDVLKHKLDELYPQGYPESVIQHLGYLFLKMSPEDIRKWNVT
notes: also called region 1; not shown: mouse Fc fragment of vector pCMV-V5-muFc

B3: human mesothelin region R1B (328D-369I)-muFc fusion protein (Fc fusion)
chain: DAALLATQMDRVNAIPFTYEQLDVLKHKLDELYPQGYPESVI-muFc
notes: as for B1
- binding result [7]: no binding (tested: last point just under 100 nM)
- binding result [8]: no binding (tested: last point just under 100 nM)

- binding result [9]: binds
- binding result [10]: binds
B4: human mesothelin region R1AB (296E-359L)-muFc fusion protein (Fc fusion)
chain: EVEKTACPSGKKAREIDESLIFYKKWELEACVDAALLATQMDRVNAIPFTYEQLDVLKHKLDEL
notes: as for B1

B5: human mesothelin region R3 (N487-G581)-muFc fusion protein (Fc fusion)
chain: NMNGSEYFVKIQSFLGGAPTEDLKALSQQNVSMDLATFMKLRTDAVLPLTVAEVQKLLGPHVEGLKAEERHRPVRDWILRQRQDDLDTLGLGLQG
notes: as for B1
- binding result [11]: no binding (tested: last point between 100 and 1000 nM)
- binding result [12]: no binding (tested: last point between 100 and 1000 nM)

B6: human mesothelin region R2 (S391-Q486)-muFc fusion protein (Fc fusion)
chain: SLETLKALLEVNKGHEMSPQVATLIDRFVKGRGQLDKDTLDTLTAFYPGYLCSLSPEELSSVPPSSIWAVRPQDLDTCDPRQLDVLYPKARLAFQ
notes: as for B1
- binding result [13]: no binding (tested: last point between 100 and 1000 nM)
- binding result [14]: no binding (tested: last point between 100 and 1000 nM)

- binding result [15]: binds
- binding result [16]: binds
B7: human mesothelin on PANC-1-MSLN cells (other)
chain: APLADYKDDDDKEVEKTACPSGKKAREIDESLIFYKKWELEACVDAALLATQMDRVNAIPFTYEQLDVLKHKLDELYPQGYPESVIQHLGYLFLKMSPEDIRKWNVTSLETLKALLEVNKGHEMSPQVATLIDRFVKGRGQLDKDTLDTLTAFYPGYLCSLSPEELSSVPPSSIWAVRPQDLDTCDPRQLDVLYPKARLAFQNMNGSEYFVKIQSFLGGAPTEDLKALSQQNVSMDLATFMKLRTDAVLPLTVAEVQKLLGPHVEGLKAEERHRPVRDWILRQRQDDLDTLGLGLQGGIPNGYLVLDLSMQEALS
notes: also called mesothelin at cell surface
